From patent publication US20240318146A1, “VASCULARIZED ORGANOIDS” (CHILDREN’S HOSPITAL MEDICAL CENTER, priority 2021, published 2024) come the findings set out here.

In experiment [1] the test system is Human pluripotency stem cells. The experiment is described as follows: Mesoderm vs. endoderm induction in human pluripotent stem cell spheroids (FOXA2/HAND1 staining, first three days). It is filed as cell-based. As for the experimental part:
To recapitulate the gut tube organogenesis in vitro, a 3D suspension culture system to differentiate endoderm and mesoderm concomitantly from human iPSCs was established. By fine-tuning the dosage and timing of Wnt, Nodal (or TGF-b), and BMP activation, mesendoderm spheroids containing both definitive endodermal (DE, FOXA2+) and lateral plate mesoderm (LPM, HAND1+) populations were generated (FIG. 2A). It was also determined that ˜28 hours of the Wnt activation was a good duration for generating appropriate amounts of both DE and LPM populations from the iPSCs (approximately 1:1) (FIG. 2B). LPM derived splanchnic mesoderm (SM, FOXF1+) further gives rise to the mesenchyme surrounding the primitive gut tube. The SM will then differentiate into the connective tissue, smooth muscle cells (SMCs), and blood vessels of the endodermal organs.
• a) At Day −1, dissociate human iPSCs or human ESCs into single cells. • b) Using an Aggrewell plate (StemCell), or other compatible cell collection plate, generate spheroids of the pluripotent cells. Note: the number of cells in each microwell should be between 500-2000 cells. Accordingly, the spheroid diameter range should be from 50-200 μm. • c) Culture the cells in steady condition (37° C. cell incubator) overnight. Note: usually, the spheroid will form at day 0. […]

Another experiment concerns mesendoderm spheroids. As to conditions: 50 ng/mL, day 3 to day 7 (FIG. 3C). The source says: To form various organs properly, the endoderm transforms into a primitive gut tube and is then regionalized along the dorsal-ventral (D-V) and anterior-posterior (A-P) axis into foregut, midgut, and hindgut under the control of various signaling pathways: BMP and TGF-b inhibition facilitate foregut formation, while Wnt and FGF activation facilitate mid/hindgut development.

In the next experiment the test system is Embryoid bodies (EBs). The experiment is described as follows: Single-cell RNA-seq of Day 3 meso/endoderm organoids. Format: cell-based, human. The following applies: accumulated stimulation (0, 1, 2, and 3 days), scRNA-seq at day 3 (FIG. 16E). The source says: Embryoid bodies (EBs) receiving various duration of BMP4 stimulation (0, 1, 2, and 3 days) were subjected to single-cell RNA-seq at day 3 (FIG. 16A). They contained both mesoderm and endoderm populations. FIG. 16B depicts a feature plot of cell distributions under different BMP4 treatment durations. FIG. 16C depicts clustering of d3 meso/endoderm based on marker genes. FIG. 16D depicts a reference map comparison of d3 meso/endoderm to CS7 gastrulation human embryo AM: Advanced mesoderm; EM: Emergent mesoderm; PS: Primitive Streak. FIG. 16E depicts a cluster projection of day 3 meso/endoderm organoids to mouse early gastrulation embryos. i. UMAP of mouse E6.5˜E8.5 embryos. ii. Reverse projection of day 3 organoids to mouse embryos map.

Experiment [2] concerns human vascularized gut tube organoids. The experiment is described as follows: Single-cell RNA-seq of Day 7 vascularized foregut and mid/hindgut organoids, reverse projection to mouse E8.75 gut tube atlas. It is filed as cell-based. The source says: FIG. 17A depicts representative UMAP projection of foregut organoid (1-day treatment of BMP4 from day 1-3) and mid/hindgut organoid (3-days treatment of BMP4 from day 1-3). FIG. 17B-D depict reverse projection of human vascularized gut tube organoids to mouse E8.75 gut tube atlas. FIG. 17B depicts mouse E8.75 embryonic gut tube containing both anterior (A) and posterior (P) portion. Gut tube (endoderm), mesenchyme, and endothelium populations are segregated into A-P subclusters. FIG. 17C depicts Day 7 foregut organoid reverse projection to mouse E8.75 gut tube. […] FIG. 17D depicts Day 7 mid/hindgut organoid reverse projection to mouse E8.75 tube.

For the molecule `Cc1c[nH]c(-c2cnc(NCCNc3ccc(C#N)cn3)nc2-c2ccc(Cl)cc2Cl)n1` [CHIR99201, reference compound], the mesoderm/endoderm ratio result in experiment [1] (Activation of Wnt under different durations, first three days (FIG. 14A)) is “drastically changed mesoderm/endoderm ratio”.

For the molecule VEGF, in the experiment on mesendoderm spheroids, the “vascular network (CD31+) surrounding the FOXA2+ epithelial layer” value is recorded as “a significant amount of a vascular network (CD31+)”.

B1: BMP4: BMP pathway activator, BMP protein (protein, UniProt P12644 293-408, looked up)
Bone morphogenetic protein 4: SPKHHSQRARKKNKNCRRHSLYVDFSDVGWNDWIVAPPGYQAFYCHGDCPFPLADHLNSTNHAIVQTLVNSVNSSIPKACCVPTELSAISMLYLDEYDKVVLKNYQEMVVEGCGCR
With B1, in the experiment with Embryoid bodies (EBs), the mesenchymal population result is given as “augmented mesenchymal population” and the neural lineage result is listed as “reduced neural lineage”. Moreover, in experiment [1] (Prolonged treatment (FIG. 14B)), the mesoderm/endoderm ratio result is on record as “increased mesoderm/endoderm ratio”. For the same molecule, the “anterior gut tube endoderm and endothelium populations” value in experiment [2] (Day 7 foregut organoid, one-day treatment compared to no BMP4 (FIG. 17C)) is “generated purer anterior gut tube endoderm and more anterior endothelium”. Also, the “posterior gut tube endoderm, mesenchyme, and endothelium populations” value in experiment [2] (Day 7 mid/hindgut organoid, longer treatment during the first three-day differentiation (FIG. 17D)) is “induced more posterior gut tube endoderm, mesenchyme, and endothelium”.
